Consider 2 molecules from publication PMC8582233 (2021).

This experiment deals with Recombinant SARS-CoV-2 S1 (SARS-CoV-2). As to the kind of experiment: MST.

B1: Recombinant L-SIGN/CD299 (receptor)
chain: QVSKVPSSLSQEQSEQDAIYQNLTQLKAAVGELSEKSKLQEIYQELTQLKAAVGELPEKSKLQEIYQELTRLKAAVGELPEKSKLQEIYQELTRLKAAVGELPEKSKLQEIYQELTRLKAAVGELPEKSKLQEIYQELTELKAAVGELPEKSKLQEIYQELTQLKAAVGELPDQSKQQQIYQELTDLKTAFERLCRHCPKDWTFFQGNCYFMSNSQRNWHDSVTACQEVRAQLVVIKTAEEQNFLQLQTSRSNRFSWMGLSDLNQEGTWQWVDGSPLSPSFQRYWNSGEPNNSGNEDCAEFSGSGWNDNRCDVDNYWICKKPAACFRDE
In general, Kd refers to the free concentration of one partner at which half of the binding sites on the other are occupied at equilibrium, for simple one-to-one binding. B1: the Kd was determined as 3.27 nM.

B2: Recombinant DC-SIGN/CD209 (receptor)
chain: QVSKVPSSISQEQSRQDAIYQNLTQLKAAVGELSEKSKLQEIYQELTQLKAAVGELPEKSKLQEIYQELTRLKAAVGELPEKSKLQEIYQELTWLKAAVGELPEKSKMQEIYQELTRLKAAVGELPEKSKQQEIYQELTRLKAAVGELPEKSKQQEIYQELTRLKAAVGELPEKSKQQEIYQELTQLKAAVERLCHPCPWEWTFFQGNCYFMSNSQRNWHDSITACKEVGAQLVVIKSAEEQNFLQLQSSRSNRFTWMGLSDLNQEGTWQWVDGSPLLPSFKQYWNRGEPNNVGEEDCAEFSGNGWNDDKCNLAKFWICKKSAASCSRDEEQFLSPAPATPNPPPA
For B2, the equilibrium dissociation constant (Kd) was determined as 3.76 nM.
